The values that follow come from US11078465B2, “Alcohol dehydrogenase mutant and application thereof in synthesis of diaryl chiral alcohols” (Jiangnan University, priority 2018, dated 2021).

In general, Km refers to the concentration of substrate that gives half-maximal velocity. The Vmax is the rate approached at saturating substrate.

First the molecules themselves.
B1: E214Q/S237C: glutamine for glutamate at position 214 and cysteine for serine at position 237 of SEQ ID No. 2 (protein)
chain: MSVLISGASGYIAKHIVRVLLEQNYKVIGTVRSQDKADKLLKQYNNPNLSYEIVPEIANLDAFDDIFKKHGKEIKYVIHAASPVNFGAKDLEKDLVIPAINGTKNMFEAIKKYAPDTVERVVMTASYASIMTPHRQNDPTLTLDEETWNPVTEENAYENVFTAYCASKTFAEKEAWKFVKENSDAVKFKLTTIHPSFVFGPQNFDEDVTKKLNQTCEIINGLLHAPFDTKVEKTHFCQFIDVRDVAKTHVLGFQKDELINQRLLLCNGAFSQQDIVNVFNEDFPELKGQFPPEDKDTDLNKGVTGCKIDNEKTKKLLAFEFTPFHKTIHDTVYQILHKEGRV
modifications: Protein translated from synthetic DNA
B2: E214N/S237C: asparagine for glutamate at position 214 and cysteine for serine at position 237 of SEQ ID No. 2 (protein)
chain: B1 chain with Q214N
modifications: Protein translated from synthetic DNA
B3: E214R/S237C: arginine for glutamate at position 214 and cysteine for serine at position 237 of SEQ ID No. 2 (protein)
chain: B1 chain with Q214R
modifications: Protein translated from synthetic DNA
B4: E214V/S237A: valine for glutamate at position 214 and alanine for serine at position 237 of SEQ ID No. 2 (protein)
chain: B1 chain with Q214V, C237A
modifications: Protein translated from synthetic DNA

Numbering of substitutions follows the chain as printed. Names may count otherwise. “Also recorded” adds a separate entry of the source.

The first data set in a line: Kinetic analysis of alcohol dehydrogenase and mutants (NADPH oxidation, 340 nm, double reciprocal curve). The format is biochemical. The following applies: substrate CPMK. Here is the method:
(§1) Adopting a total reaction system of 200 μL, including: 1.0 mM NADPH, 1.0 mM substrate CPMK and sodium phosphate buffer (PBS, 100 mM, pH 7.0), fully and evenly mixing, maintaining at 30° C. for 2 min, adding an appropriate amount of enzyme solution, and detecting the change in light absorption at 340 nm.
(§2) The enzyme activity was calculated by the following formula: Enzyme activity (U)=EW×V×10^3/(6220×I);
(§3) in the formula, EW is the change in absorbance at 340 nm in 1 min; V is the volume of a reaction solution in mL; 6220 is the molar extinction coefficient of NADPH in L/mol·cm); and 1 is the optical path distance in cm. One activity unit (U) corresponds to the amount of enzyme required to catalyze the oxidation of 1 μmol NADPH per minute under the above conditions.
A column used for purification was a nickel affinity column HisTrap FF crude, and purification was achieved through affinity chromatography using a histidine tag on recombinant protein. The nickel column was equilibrated with a solution A first, a crude enzyme solution was loaded, a penetrating peak was further eluted off using the solution A, and after equilibrium, a solution B (20 mM sodium phosphate, 500 mM NaCl, and 1000 mM imidazole, pH 7.4) was used for gradient elution to elute off the recombinant protein bound to the nickel column, so as to obtain the recombinant alcohol dehydrogenase mutant. The purified protein was subjected to activity measurement (CPMK as substrate, and NADPH as coenzyme) and SDS-PAGE analysis. […] The purified alcohol dehydrogenase protein was then replaced into a Tris-HCl (100 mM, pH 7.0) buffer using a Hi Trap Desalting column (GE Healthcare).
The activity of KpADH at different substrate concentrations and coenzyme concentrations was determined, and a double reciprocal curve was made based on the reciprocal of activity and substrate concentration to calculate kinetic parameters.
As for B1, the Kcat was found to be 7.06 ± 0.63 s⁻¹, the Km turned out to be 550 ± 20 µM and the Vmax was found to be 10.59 ± 0.16 µM/min/mg.

As to B2, the Kcat stood at 5.87 ± 0.13 s⁻¹, the Km came out at 220 ± 20 µM and the Vmax came out at 8.80 ± 0.20 µM/min/mg.

In the case of B3, the Kcat is 10.4 ± 0.11 s⁻¹, the Km turned out to be 880 ± 20 µM and the Vmax was determined as 15.6 ± 0.16 µM/min/mg.

As for B4, the Kcat was determined as 8.46 ± 0.27 s⁻¹, the Km worked out at 320 ± 30 µM and the Vmax came to 12.69 ± 0.40 µM/min/mg.

Another data set can be described thus: Stereoselectivity (ee) of CPMK reduction, chiral liquid chromatography. The format is biochemical.
Settings: not given
Here is the method:
(§4) In an embodiment of the present disclosure, a chromatographic analysis method is as follows: 100 μL of reactant liquid is taken, 500 μL of ethyl acetate is added, shaking is performed for 1-2 min, centrifugation is performed at 12,000 rpm for 2-5 min, supernatant liquid is taken into a centrifuge tube, after an organic phase naturally volatilizes completely, 500 μL of chromatographically pure ethanol is added, and chiral liquid chromatography and gas chromatography are performed to analyze the transformation rate and the ee value.
(§5) Method for determining optical purity ee:
(§6) As: molar concentration of (S)-CPMA obtained by liquid chromatography; and AR: molar concentration of (R)-CPMA obtained by liquid chromatography.
As to B1, the “configuration of product / stereoselectivity in words” value was “inversion from the R configuration to the S configuration; also recorded: (S)-CPMA”.

Consider B2, for which the “configuration of product / stereoselectivity in words” value is “inversion from the R configuration to the S configuration; also recorded: (S)-CPMA”.

For B3, the “configuration of product / stereoselectivity in words” value is recorded as “inversion from the R configuration to the S configuration; also recorded: (S)-CPMA”.

The data set is the same for the next values; noted with them: product configuration in brackets.
Turning to B1, the e.e. is 44.6 (S).

On to B2, for which the e.e. is 43.6 (S).

Turning to B3, the e.e. is given as 48.3 (S).

In the case of B4, the e.e. is on record as 98.5 (R).

Another data set is described as follows: Substrate specificity, specific activity. The format is biochemical. As to conditions: substrate [drawing 1]. Here is the method: as §1, §2, §3
(§7) The reduction on prochiral carbonyl compounds by the alcohol dehydrogenase mutants obtained in Example 3 was studied. The pro-chiral carbonyl compounds include (4-chlorophenyl)-(pyridin-2-yl)-methanone (CPMK), phenyl-(pyridin-2-yl)-methanone, (4-chlorophenyl)-(phenyl)-methanone, (4-bromophenyl)(phenyl)methanone, (4-fluorophenyl)(phenyl)methanone, (4-methoxyphenyl)-(phenyl)-methanone, (4-nitrophenyl)(phenyl)methanone, 1-(pyridin-2-yl)ethanone, acetophenone, 4′-Chloroacetophenone, 4-chlorophenacyl chloride, ethyl 2-oxo-4-phenylbutanoate (OPBE), ethyl 4-chloro-3-oxobutanoate, and methyl 2-oxo-2-phenylacetate.
As for B1, the specific activity is listed as 0.22 U/mg.

Molecule B2 displayed a specific activity of 0.84 U/mg.

B3 yielded a specific activity of 0.26 U/mg.

As to B4, the specific activity was 0.16 U/mg.

The same data set, now with this note: substrate [drawing 2].
The molecule B1 displayed a specific activity of 0.12 U/mg.

In turn, B2 showed a specific activity of 0.52 U/mg.

In turn, B3 registered a specific activity of 0.18 U/mg.

Molecule B4 came in with a specific activity of 0.12 U/mg.

The data set is the same for the next values; noted with them: substrate [drawing 3].
With B1, the specific activity amounted to 0.09 U/mg.

B2: the specific activity was 0.32 U/mg.

Turning to B3, the specific activity came out at 0.36 U/mg.

For B4, the specific activity was determined as 2.37 U/mg.

The data set is the same for the next values; noted with them: substrate [drawing 4].
In the case of B1, the specific activity is recorded as 5.65 U/mg.

Molecule B2 had a specific activity of 7.50 U/mg.

B3 returned a specific activity of 4.21 U/mg.

The molecule B4 registered a specific activity of 2.86 U/mg.

Staying with this data set, now noted: substrate [drawing 5].
As to B1, the specific activity is on record as 3.65 U/mg.

Regarding B2, the specific activity came out at 7.48 U/mg.

Regarding B3, the specific activity is recorded as 1.96 U/mg.

The molecule B4 gave a specific activity of 9.21 U/mg.

Staying with this data set, now noted: substrate [drawing 6], 4-chlorophenacyl chloride.
In turn, B1 displayed a specific activity of 10.25 U/mg.

As for B2, the specific activity was 10.02 U/mg.

Take B3: the specific activity came to 6.69 U/mg.

The molecule B4 came in with a specific activity of 27.07 U/mg.

Staying with this data set, now noted: substrate [drawing 7].
B1 displayed a specific activity of 9.89 U/mg.

As to B2, the specific activity was 17.10 U/mg.

In the case of B3, the specific activity was determined as 22.48 U/mg.

In the case of B4, the specific activity came out at 24.47 U/mg.

Still in this data set, the particulars now being: substrate [drawing 8].
Take B1: the specific activity was 22.65 U/mg.

In the case of B2, the specific activity is 13.21 U/mg.

As to B3, the specific activity is given as 30.69 U/mg.

The molecule B4 returned a specific activity of 27.64 U/mg.

The same data set, now with this note: substrate [drawing 9], ethyl 4-chloro-3-oxobutanoate.
In turn, B1 gave a specific activity of 2.65 U/mg.

On to B2, for which the specific activity was found to be 5.80 U/mg.

Take B3: the specific activity came out at 1.88 U/mg.

B4 showed a specific activity of 8.03 U/mg.

Another data set can be described thus: Stereoselectivity on different substrates. The class given is biochemical. The following applies: substrate [drawing 10], acetophenone; configuration in brackets. Here is the method:
as §4, §5, §6, §7
All the products above were recrystallized from ethyl acetate and gave more than 99.9% optical purity.
As to B1, the “Stereoselectivity (ee)” value is given as 96.5 (R).

As for B2, the “Stereoselectivity (ee)” value is recorded as 99.0 (R).

Turning to B3, the “Stereoselectivity (ee)” value was 98.3 (R).

In the case of B4, the “Stereoselectivity (ee)” value is given as 17.1 (R).

Still in this data set, the particulars now being: substrate [drawing 11], 4-chloroacetophenone; configuration in brackets.
Consider B1, for which the “Stereoselectivity (ee)” value was 93.5 (R).

Take B2: the “Stereoselectivity (ee)” value is on record as 97.4 (R).

Regarding B3, the “Stereoselectivity (ee)” value is given as 97.2 (R).

On to B4, for which the “Stereoselectivity (ee)” value is 97.8 (R).

Still in this data set, the particulars now being: substrate [drawing 12], 4-chlorobenzoyl chloride; configuration in brackets.
As for B1, the “Stereoselectivity (ee)” value is listed as 97.6 (R).

For the molecule B2, the “Stereoselectivity (ee)” value is reported as 93.6 (R).

On to B3, for which the “Stereoselectivity (ee)” value is 92.9 (R).

Take B4: the “Stereoselectivity (ee)” value is reported as 75.2 (R).

Still in this data set, the particulars now being: substrate [drawing 16], (4-bromophenyl)-(phenyl)-methanone; configuration in brackets.
In the case of B1, the “Stereoselectivity (ee)” value is 92.6 (R).

With B2, the “Stereoselectivity (ee)” value is 91.9 (R).

As to B3, the “Stereoselectivity (ee)” value is on record as 89.9 (R).

For the molecule B4, the “Stereoselectivity (ee)” value is on record as 88.1 (S).

Still in this data set, the particulars now being: substrate [drawing 17], p-nitrobenzophenone; configuration in brackets.
For the molecule B1, the “Stereoselectivity (ee)” value is on record as 93.3 (R).

For B2, the “Stereoselectivity (ee)” value is 90.7 (R).

Consider B3, for which the “Stereoselectivity (ee)” value is given as 88.0 (R).

With B4, the “Stereoselectivity (ee)” value is 85.3 (S).

Still in this data set, the particulars now being: substrate p-nitrobenzophenone, (S).
With B2, the ee turned out to be 99.1%.

A further data set is described as follows: Stereoselectivity on different substrates. The format is biochemical. The following applies: substrate [drawing 13]; configuration in brackets. Here is the method: as §4, §5, §6, §7
Consider B1, for which the “Stereoselectivity (ee)” value was 56.6 (R).

With B2, the “Stereoselectivity (ee)” value is recorded as 51.5 (R).

On to B3, for which the “Stereoselectivity (ee)” value was 50.1 (R).

With B4, the “Stereoselectivity (ee)” value is listed as 36.6 (R).

Still in this data set, the particulars now being: substrate [drawing 14], likely CPMK (values partly match Table 4); configuration in brackets.
For B1, the “Stereoselectivity (ee)” value is reported as 44.6 (S).

Regarding B2, the “Stereoselectivity (ee)” value is reported as 57.1 (S).

Consider B3, for which the “Stereoselectivity (ee)” value is listed as 48.3 (S).

Take B4: the “Stereoselectivity (ee)” value is listed as 98.7 (R).

Still in this data set, the particulars now being: substrate [drawing 15]; configuration in brackets.
Turning to B1, the “Stereoselectivity (ee)” value is on record as 88.6 (R).

Consider B2, for which the “Stereoselectivity (ee)” value is given as 57.1 (R).

As for B3, the “Stereoselectivity (ee)” value is 49.8 (R).

With B4, the “Stereoselectivity (ee)” value was 54.2 (S).

Staying with this data set, now noted: substrate [drawing 18]; configuration in brackets.
For B1, the “Stereoselectivity (ee)” value is recorded as 90.6 (R).

For the molecule B2, the “Stereoselectivity (ee)” value is 99.1 (S).

Turning to B3, the “Stereoselectivity (ee)” value was 91.9 (R).

In the case of B4, the “Stereoselectivity (ee)” value is on record as 81.8 (S).
